Assay results reported in PMC5923107 (Antimicrobial Agents and Chemotherapy, 2018).

What was measured:
Assay in all cases: ELISA
Conditions in all cases: both partners purified
[1] = target: T1, hemagglutinin (HA) of influenza B virus B/Brisbane/60/2008 (Victoria lineage) (Influenza B virus B/Brisbane/60/2008, UniProt C0LT35, strain)
T1 construct: also called B/Brisbane/60/2008 HA; source: bought: Immune Tech

[2] = target: T2, hemagglutinin (HA) of influenza B virus B/Malaysia/2506/2004 (Victoria lineage) (Influenza B virus B/Malaysia/2506/2004; …, UniProt C0LT35, strain)
T2 construct: also called B/Malaysia/2506/2004 HA; source: bought: Protein Sciences

[3] = target: T3, hemagglutinin (HA) of influenza B virus B/Victoria/2/1987 (Victoria lineage) (Influenza B virus B/Victoria/2/1987, UniProt P22092, strain)
T3 construct: also called B/Victoria/2/1987 HA; source: bought: Immune Tech

[4] = target: T4, hemagglutinin (HA) of influenza B virus B/Florida/04/2006 (Yamagata lineage) (Influenza B virus B/Florida/4/2006, UniProt E1TVD5, strain)
T4 construct: also called B/Florida/4/2006 HA; HA of B/Florida/04/2006; source: bought: Sino Biological

Measured: binding result

B1: TRL848 (antibody, V domains shown)
VH: QVQLLESGGDVVQPGTSLRLSCAASGFSLWTSGMHWVRQAPGKGLEWVAVMSYDETKKYYADSVRGRFSISRDNSRNTLYLQMNSLRVEDTAVYFCAKPRLDYLDYFHAADSWGQGTLVSVSS
VL: DIVLTQPPSVSVAPGQTATITCGGNYIGSKSVNWYQQRPGHAPVLVVYDDSDRPSGIPDRFSGSNSRSTATTATLTISRVEAGDEADYYCQVWETSEDLWVFGGGTKLTVL
notes: also called MAb TRL848
binds: all assays above

B2: TRL847 (antibody, V domains shown)
VH: QVQLVESGGGLVQPGGSLRLSCVASGFTFSRFSMNWVRQAPGMGLEWVSYISDTGRTIYYADSVKGRFTISRDNDKNTLYLQMKSLRDEDSAFYYCARDPDTPFVRAFDSWGQGVLVTVSS
VL: DIVMTQSPSFLSASVGDRVTITCRTSQVISSYLAWYQQRPGKAPKLLIYAASTLQSGVPSRFSGSGSGTRFSLTISNLQPEDFATYFCQQLTTYPPITFGQGTRLEIK
notes: also called MAb TRL847
binds: all assays above

B3: TRL849 (antibody, V domains shown)
VH: QVQLVESGPGLVKPSQTLSLTCTVSGGSISNGGYHWSWIRQHPGKGLEWIGNIYYRGSTFYDPSLKSRVTISVDTSKSQFSLKLTSVTAADTAVYYCARMPLANYDLLTGLYIGAFDLWGQGTMVTVSS
VL: DIVLTQSPATLSVSPGERATLSCRASQSVNRNLAWFQQIPGQAPRLLIFDASTRAADIPARFSGGGSGAEFTLTVSSLQPEDFAVYYCQQYDKWPPGFGQGTKVEIK
notes: also called MAb TRL849
binds: [1] | [2] | [3]

B4: TRL854 (antibody, V domains shown)
VH: QVQLVESGAEVKKPGASVRVSCKGSGYTFTAYHMHWVRQAPGQGFEWVGWINPNSGATYYTSTFEGRVTMTRDTSITTAYMELSSLRSDDTAVYYCATDIVVERDASLGGFNSYGMDVWGQGTTVTVSS
VL: DIEMTQSPLSLPVTPGEPASISCRSSQSLLHSNGYNHLAWYLQKPGRSPHLLIYLASTRASGVPDRFSGSGSGTDFTLKISRVEAEDVGIYYCMQSLQTSITFGQGTRLEIK
notes: also called MAb TRL854
binds: all assays above

B5: TRL845 (antibody, V domains shown)
VH: QVQLVQSGGDLVQPGGSLRLSCAASGFTFSRYSMNWVRQAPGMGLEWVAYISDTSRTIYYADSVKGRFTISRDNAKNSLYLQMKSLRDEDTAVYYCARDPDTPFVRAFDSWGQGTLVTVSS
VL: DIVLTQSPSFLSASVGDRVTITCRASQLISSYFAWYQQKPGKPPKLLIYAASTLQSGVPSRFSGSGSGTQFSLTISSLQPEDFATYYCQQLNSYPPITFGQGTRLEIK
notes: also called MAb TRL845
binds: [1] | [2] | [3]
